For test [1], the target named is T1, GST-tagged PAH1 (paired amphipathic helix 1 domain of Sin3B) (UniProt Q62141 31-107).
T1 chain: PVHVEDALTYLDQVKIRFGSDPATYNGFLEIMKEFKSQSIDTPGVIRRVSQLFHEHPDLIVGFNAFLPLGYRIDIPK
Kind of test: SPR.

The target of test [2] is T2, PAH1-FLAG (paired amphipathic helix 1 domain of Sin3B with a FLAG tag) (UniProt Q62141 31-107).
T2 chain: T1 chain
Kind of test: SPR; well-used sensor chip (about 100 regenerations).

Test [3] concerns the target T2, PAH1-FLAG (paired amphipathic helix 1 …). As to the kind of experiment: SPR; brand-new sensor chip.
For test [4], the system named is biotinylated REST. Kind of test: SPR kinetics of PAH1 peptides on captured biotinylated REST (Biacore T200, SA chip). The format is binding. Particulars: for Ka (association rate) / Kd (dissociation rate): mean ± SEM, n = 3; for binding to biotinylated REST: SPR sensorgram, SA chip, 0.625 to 10 µM analyte. From the text: In order to validate a binding surface between Sin3B and REST, we utilized the structural information of PDB (2CZY) and designed longer peptides of binding surfaces with a tag and a protease recognition site as shown in Figure 1a. We asked the RIKEN Systems and Structural Biology Center (Yokohama, Japan) to generate recombinant peptides using E. coli. Finally, we obtained biotinylated REST, GST-PAH1 and PAH1-FLAG. In order to validate whether biotinylated REST binds two PAH1 peptides, we designed an SPR assay using a streptavidin (SA) sensor chip as shown in Figure 1b. Biotinylated REST should be bound as a ligand followed by the injection of PAH1 peptides as an analyte.
We chose the amino acid sequences of PAH1 and REST from information based on the crystal structure of a PAH1/REST complex (PDB: 2CZY). We then asked the scientists with the RIKEN institute to produce recombinant PAH1 and REST peptides. They generated recombinant peptides such as GST-PAH1, PAH1-FLAG and biotinylated REST using E. coli. We used these peptides in this study.
Values are expressed as the mean ± standard error of the mean (SEM) from indicated replicate samples in each experimental group and the experiments were replicated to ensure consistency. The statistical significance was determined using the Student’s t-test. Values marked as “*” were considered to be statistically significant if their p values were <0.00005. Signal-to-background ratio (S/B), signal-to-noise ratio (S/N) and Z’-factor were calculated by the formula described in our previous report. Additionally, the general criterion sufficient to perform HTS was validated in our previous report. In the SPR experiments, a statistical trend was considered to be statistically significant if its p-value was 1 > p > 0.05.

The test system of test [5] is biotinylated REST. As to the kind of experiment: TR-FRET PAH1-REST interaction (anti-GST/anti-FLAG-Eu3+ cryptate donor, SA-XL665 acceptor). The format is binding. The following applies: for TR-FRET signal: 665 nm normalized to 620 nm, PAH1 peptide and biotinylated REST 1 to 10,000 nM, n = 4; for dynamic range: TR-FRET 665/620 nm, 384-well, 20 µL, 50 mM Tris-HCl pH 7.6, with biotinylated REST; for S/B / S/N: n=4. The text has this: Finally, in order to establish a high-throughput and high-dynamic-range assay mimicking the binding surface between PAH1 and REST, we tried to apply the TR-FRET method for monitoring the interaction as shown in Figure 3a. We chose Europium cryptate (Eu^3+)-conjugated antibodies against GST or FLAG as a donor and SA-conjugated XL665 (a phycobiliprotein pigment derived from red algae) as an acceptor, for TR-FRET. If GST-PAH1 or PAH1-FLAG binds biotinylated REST and then transfers Eu^3+’s energy to XL665, it results in a change of the wavelength from 620 nm (a […] fluorescence derived from Eu^3+ alone) to 665 nm (a long-lived fluorescence converted by FRET) (Figure 3a). […] We prepared a serial dilution of GST-PAH1 or PAH1-FLAG and biotinylated REST ranging from 1 to 10,000 nM (Figure 3b) and then determined the 665 nm fluorescence normalized to 620 nm. […] We also checked whether GST-PAH1-anti-GST-Eu^3+ or FLAG-PAH1-anti-FLAG-Eu^3+ complexes caused any FRET with XL665 (Supplementary Figure S1e), and could not observe any change in wells with these alone. We assigned thresholds for high-throughput and high-standard assay as signal-to-background ratio (S/B) and Z’ factors of more than 5 and 0.8, respectively. We narrowed down optimal conditions to GST-PAH1 at 10, 100, 1000 or 10,000 nM in the presence of biotinylated REST at 1000 or 10,000 nM and that PAH1-FLAG and biotinylated REST at 10,000 nM. The S/B, signal-to-noise ratio (S/N), Z’ factor and coefficient of variation (CV) are shown in the Supplementary Table S1. We also assigned stringent statistical significance and then identified similar results by the S/B and Z’ factor (Figure 3b). To exclude the possibility that Eu^3+ antibodies directly bound XL665 causing FRET, we also determined the fluorescence level in wells including anti-GST-Eu^3+ or anti-FLAG-Eu^3+ and XL665. […] The results were 772 ± 9.1 and 436 ± 9.1 665/620 nm, respectively (n = 6). Although we observed very good dynamic range data at 1 h after preparing reaction mixtures, we obtained similar high-dynamic range data even at 18 h after that (data not shown). From 10 to 1000 nM in the concentration of biotinylated REST, 1000 or 10,000 nM GST-PAH1 induced maximal signals (Figure 3b, left, light blue and orange). The dynamic range of the assay was 31-fold, whereas only 10,000 nM PAH1-FLAG was required for the same amount of biotinylated REST to provide a maximal response and the dynamic range was 7-fold (Figure 3b, right, orange). We ultimately succeeded in establishing a high-standard assay, especially using GST-PAH1 and biotinylated REST.
TR-FRET reagents were prepared by diluting the anti-GST Eu3+ cryptate or anti-FLAG Eu3+ cryptate and SA-XL665 in 50 mM Tris-HCl (pH 7.6) buffer containing 15 mM NaCl, 140 mM KCl, 0.5 mM MgCl2, 0.1% BSA and 0.8 M KF with and without biotinylated REST and each PAH1 peptide. The reaction mix was 20 µL in 384-well format according to the manufacturer’s instructions. The fluoride ion avoids interference with fluorescence properties by protecting free coordination sites between conjugate “cage” and europium ions. One hour or more after preparation, we measured the intensities at 665 and 620 nm wavelength using PHERAstar FS (BMG biotech, Offenburg, Germany).
Values are expressed as the mean ± standard error of the mean (SEM) from indicated replicate samples in each experimental group and the experiments were replicated to ensure consistency. The statistical significance was determined using the Student’s t-test. Values marked as “*” were considered to be statistically significant if their p values were <0.00005. Signal-to-background ratio (S/B), signal-to-noise ratio (S/N) and Z’-factor were calculated by the formula described in our previous report. Additionally, the general criterion sufficient to perform HTS was validated in our previous report. […]

Test [6] has as its system biotinylated REST. As to the kind of experiment: SPR competitive binding, GST-PAH1 plus PAH1-FLAG on captured biotinylated REST. Here is the method:
In order to determine whether another PAH1 peptide, PAH1-FLAG, competitively binds biotinylated REST in the presence of GST-PAH1, we injected 10 µM GST-PAH1, 10 µM PAH1-FLAG or 5 µM GST-PAH1 and 5 µM PAH1-FLAG into the flow cell capturing biotinylated REST, all of which could change the sensorgram, even though their rates of association/dissociation were different (Figure 2c). […] As a result, the equal molarity of both PAH1 peptides changed the sensorgram-like intermediate form (Figure 2c). The association rate was faster than GST-PAH1, while the dissociation rate was slower than PAH1-FLAG.

Setting [7] is: SPR Biacore T200, SA chip with biotinylated REST, brand-new sensor chip, analyte 0.625 to 10 µM, 30 µL/min, association 60 s, dissociation 2 min.
Setting [8] is: TR-FRET, PAH1 10 nM, REST 1000 nM.
Setting [9] is: TR-FRET, PAH1 10 nM, REST 10,000 nM.
Setting [10] is: TR-FRET, PAH1 100 nM, REST 1000 nM.
[11] abbreviates: TR-FRET, PAH1 100 nM, REST 10,000 nM.
[12] abbreviates: TR-FRET, PAH1 1000 nM, REST 1000 nM.
The mark [13] stands for this setting: TR-FRET, PAH1 1000 nM, REST 10,000 nM.
[14] abbreviates: TR-FRET, PAH1 10,000 nM, REST 1000 nM.
The mark [15] stands for this setting: TR-FRET, PAH1 10,000 nM, REST 10,000 nM.
Where [16] appears, read: SPR, well-used sensor chip (after around 100 regenerations) with biotinylated REST.

Data on 3 molecules can be found in article PMC7956749, “Establishment of Novel Protein Interaction Assays between Sin3 and REST Using Surface Plasmon Resonance and Time-Resolved Fluorescence Energy Transfer” (International Journal of Molecular Sciences, 2021).

“Also recorded” adds a separate entry of the source. Where no end group is shown, it is not given here.

B1: biotinylated REST peptide (RE-1 silencing transcription factor, binding surface for Sin3B PAH1) (peptide)
chain: APQLIMLANVALTGE
modifications: also: biotin, site not given here
For B1, the results for the dissociation constant (Kd) in test [1], in test [2] and in test [3] were 0.468 nM, 1690 nM and 2030 nM, respectively.

B2: GST-PAH1: recombinant glutathione S-transferase (GST)-tagged PAH1 peptide of Sin3B, produced in E. coli (protein)
chain: T1 chain
modifications: left off: GST, end not stated, kept | histidine-tag-like sequence, end not stated, state not stated
notes: recombinant glutathione S-transferase (GST)-tagged PAH1 peptide of Sin3B, produced in E. coli
In the case of B2, the Ka (association rate) with biotinylated REST [4] (setting [7]) was 2.38e+06 ± 6.7e+11 M⁻¹ s⁻¹. Also, the “Kd (dissociation rate)” value in the test with biotinylated REST [4] (setting [7]) is 1.35 ± 0.82 × 10^−3 1/s. Besides, the “association and dissociation with biotinylated REST” value in the test on biotinylated REST [4] (SPR sensorgram after ligand capturing, GST-PAH1 10 µM) is “robust association and subsequent dissociation”. In the test with biotinylated REST [4], the “binding to biotinylated REST” value is on record as “bound biotinylated REST in a concentration-dependent manner”. Further, the “affinity/association compared with PAH1-FLAG” value in the test on biotinylated REST [4] (SPR, statistical comparison GST-PAH1 vs PAH1-FLAG, Student's t-test) is “not significant but had a slower trend than PAH1-FLAG, resulting in a significantly increased affinity to REST; also recorded: significantly greater than that of PAH1-FLAG”. Besides, in the test on biotinylated REST [5], the “TR-FRET signal” value is “substantial signals; also recorded: remarkably higher dynamic range and accuracy”. This molecule also came in with a dynamic range in the test with biotinylated REST [5] of 31 fold. The S/B worked out at 26.6 in the test on biotinylated REST [5] (setting [8]); 24.2 in the test on biotinylated REST [5] (setting [9]); 27.0 in the test with biotinylated REST [5] (setting [10]); 26.7 with biotinylated REST [5] (setting [11]); 29.2 in the test with biotinylated REST [5] (setting [12]); 31.1 in the test with biotinylated REST [5] (setting [13]). Besides, the S/B was found to be 7.7 in the test with biotinylated REST [5] (setting [14]) and 11.7 in the test on biotinylated REST [5] (setting [15]). Moreover, the S/N in the test with biotinylated REST [5] (setting [8]) was 469.9; in the test on biotinylated REST [5] (setting [9]), 1,114.3; in the test on biotinylated REST [5] (setting [10]) it was 478.7; in the test on biotinylated REST [5] (setting [11]), 1230.7; in the test with biotinylated REST [5] (setting [12]) it was 517.8; in the test with biotinylated REST [5] (setting [13]), 1441.0. Also, the figures for the S/N in the test with biotinylated REST [5] (setting [14]) and in the test with biotinylated REST [5] (setting [15]) were 123.9 and 515.1, respectively.

B3: PAH1-FLAG: recombinant FLAG-tagged PAH1 peptide of Sin3B, produced in E. coli (protein)
chain: T1 chain
modifications: left off: FLAG, end not stated, kept | histidine-tag-like sequence, end not stated, state not stated
notes: recombinant FLAG-tagged PAH1 peptide of Sin3B, produced in E. coli
B3: in the test on biotinylated REST [4] (setting [7]), the “Ka (association rate)” value is recorded as 1.93 ± 0.17 × 10^3 Ms and the “Kd (dissociation rate)” value was 3.83 ± 0.39 × 10^−3 1/s. In addition, the “binding to biotinylated REST” value in the test with biotinylated REST [4] is listed as “bound biotinylated REST in a concentration-dependent manner”. Moreover, in the test on biotinylated REST [4] (setting [16]), the “Ka (association rate)” value is reported as 2.31 ± 0.78 × 10^3 Ms and the “Kd (dissociation rate)” value is reported as 3.59 ± 0.13 × 10^−3 1/s. In addition, the “affinity on well-used vs brand new chip” value with biotinylated REST [4] (SPR, PAH1-FLAG, well-used vs brand-new chip with REST) is given as “not significantly different, but had a trend of lower affinity when compared to the brand new one”. Also, in the test on biotinylated REST [5], the “TR-FRET signal” value is recorded as “fewer signals only at high reagent concentrations” and the dynamic range came out at 7 fold. Besides, in the test on biotinylated REST [5] (setting [15]), the S/N stood at 165.3. Moreover, in the test with biotinylated REST [5] (TR-FRET, biotinylated REST 10 to 1000 nM), the “concentration inducing maximal signal” value is 10,000 nM. For the same molecule, the “competitive binding to biotinylated REST” value with biotinylated REST [6] (10 µM GST-PAH1, 10 µM PAH1-FLAG or 5 µM of each) is “shares the same binding surface as GST-PAH1”. In addition, the “rates of association and dissociation vs GST-PAH1” value in the test on biotinylated REST [6] (10 µM each) was “far more quickly than in GST-PAH1”.
